# Patent US20220363740A1 (Sanofi, published 2022)
# Like-named read-outs stand apart in the source and are kept apart here.
# Tests used:
# Human TGFβ1 (human) [1] = molecular target: Human TGFβ1 (human) (UniProt P01137); assay: SPR (Biacore), apparent KD, 24 RU TGFβ1 immobilized on the chip
# Human TGFβ1 (human) [2] = molecular target: Human TGFβ1 (human) (UniProt P01137); assay: SPR (Biacore), apparent KD, 105 RU TGFβ1 immobilized on the chip
# Human TGFβ1 (human) [3] = molecular target: Human TGFβ1 (human) (UniProt P01137); assay: SPR (Biacore), apparent KD, 544 RU TGFβ1 immobilized on the chip
# Human TGFβ1 [4] = molecular target: T1, Human TGFβ1 (human, UniProt P01137 279-390)
# Human TGFβ1 [5] = molecular target: T1, Human TGFβ1; assay: cell-based or functional assay
# Human TGFβ1 [6] = molecular target: T1, Human TGFβ1; assay: SPR (Biacore), apparent KD, 24 RU TGFβ1 immobilized on the chip
# Human TGFβ1 [7] = molecular target: T1, Human TGFβ1; assay: SPR (Biacore), apparent KD, 105 RU TGFβ1 immobilized on the chip
# Human TGFβ1 [8] = molecular target: T1, Human TGFβ1; assay: SPR (Biacore), apparent KD, 544 RU TGFβ1 immobilized on the chip
# Human TGFβ1 [9] = molecular target: T1, Human TGFβ1; assay: SPR
# Sequence of Human TGFβ1 (human) (P01137 279-390 limits assumed): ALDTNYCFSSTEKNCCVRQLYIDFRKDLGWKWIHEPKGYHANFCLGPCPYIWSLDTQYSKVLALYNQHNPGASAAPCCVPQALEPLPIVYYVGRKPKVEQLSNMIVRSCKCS
# T1 sequence (P01137 279-390 limits assumed): as above
molecule,measurement,setting,value
scFv CAT191 diabody (scFv diabody 5aa),Kd,Human TGFβ1 (human) [1],4.1 nM
same,Kd,Human TGFβ1 (human) [2],3.9 nM
same,Kd,Human TGFβ1 (human) [3],4.8 nM
GC1008 (antibody),"IC50 (read off the curve), TGFβ1-stimulated IL-11 production (A549 bioassay)",Human TGFβ1 [4],0.01 nM
"CAT191(scFv) (scFv, Parental scFv; also called scFv(CAT191)) scFv: EVQLVESGGGVVQPGRSLRLSCAASGFTFSSYGMHWVRQAPGKELEWVAVISYDGSIKYYADSVKGRFTISRDNSKNTLYLQMNSLRAEDTAVYYCARTGEYSGYDTDPQYSWGQGTTVTVSSSGGGSGGGGSGGGGSEIVLTQSPSSLSASVGDRVTITCRSSQGIGDDLGWYQQKPGKAPILLIYGTSTLQSGVPSRFSGSGSGTDFTLTINSLQPEDFATYYCLQDSNYPLTFGGGTRLEIK","IC50 (read off the curve), TGFβ1-stimulated IL-11 production (A549 bioassay)",Human TGFβ1 [5],~0.4 nM
same,Kd,Human TGFβ1 [6],1.7 nM
same,Kd,Human TGFβ1 [7],1.6 nM
same,Kd,Human TGFβ1 [8],1.3 nM
"Leucine zipper peptide-derived dimer (other, CAT191 scFv fused to tags and a leucine zipper peptide; Expressed in E. coli and only partially purified when tested) scFv: EVQLVESGGGVVQPGRSLRLSCAASGFTFSSYGMHWVRQAPGKELEWVAVISYDGSIKYYADSVKGRFTISRDNSKNTLYLQMNSLRAEDTAVYYCARTGEYSGYDTDPQYSWGQGTTVTVSSSGGGSGGGGSGGGGSEIVLTQSPSSLSASVGDRVTITCRSSQGIGDDLGWYQQKPGKAPILLIYGTSTLQSGVPSRFSGSGSGTDFTLTINSLQPEDFATYYCLQDSNYPLTFGGGTRLEIKRAAAHHHHHHGAAEQKLISEEDLNGAAPKPSTPPGSSGELEELLKHLKELLKGPRKGELEELLKHLKELLKGGAPGGHHHHHH",binding result,Human TGFβ1 [9],binds
